We go through one substance from patent publication US20100204147A1, “Methods For Delivering Thymosin Beta 4, Analogues, Isoforms and Other Derivatives” (REGENERX BIOPHARMACEUTICALS, INC., priority 2003, published 2010).

Experiment [1] has as its target T1, fibrin (Homo sapiens, UniProt P02671).
T1 construct: purchased Enzyme Research Laboratories (South Bend, Ind.); host or cells: fibrin generated in the well or tube from the purchased fibrinogen with bovine thrombin
T1 sequence (P02671 36-629 limits assumed): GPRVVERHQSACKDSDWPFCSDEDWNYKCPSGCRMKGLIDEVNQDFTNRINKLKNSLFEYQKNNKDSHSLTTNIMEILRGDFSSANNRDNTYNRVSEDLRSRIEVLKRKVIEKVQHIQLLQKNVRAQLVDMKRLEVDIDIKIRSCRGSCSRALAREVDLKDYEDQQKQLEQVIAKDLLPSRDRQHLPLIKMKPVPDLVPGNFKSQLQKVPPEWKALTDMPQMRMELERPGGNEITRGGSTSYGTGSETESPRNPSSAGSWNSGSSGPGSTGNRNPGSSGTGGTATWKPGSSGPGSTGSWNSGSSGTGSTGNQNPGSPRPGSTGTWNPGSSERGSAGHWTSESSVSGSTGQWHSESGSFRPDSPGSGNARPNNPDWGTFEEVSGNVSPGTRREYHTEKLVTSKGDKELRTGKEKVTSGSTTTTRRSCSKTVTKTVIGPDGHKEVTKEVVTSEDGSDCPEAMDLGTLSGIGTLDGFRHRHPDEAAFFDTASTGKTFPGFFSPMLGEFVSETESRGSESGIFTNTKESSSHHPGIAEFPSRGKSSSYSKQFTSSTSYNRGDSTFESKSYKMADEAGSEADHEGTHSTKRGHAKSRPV
T1 sequence (P02675 45-491 partner limits assumed): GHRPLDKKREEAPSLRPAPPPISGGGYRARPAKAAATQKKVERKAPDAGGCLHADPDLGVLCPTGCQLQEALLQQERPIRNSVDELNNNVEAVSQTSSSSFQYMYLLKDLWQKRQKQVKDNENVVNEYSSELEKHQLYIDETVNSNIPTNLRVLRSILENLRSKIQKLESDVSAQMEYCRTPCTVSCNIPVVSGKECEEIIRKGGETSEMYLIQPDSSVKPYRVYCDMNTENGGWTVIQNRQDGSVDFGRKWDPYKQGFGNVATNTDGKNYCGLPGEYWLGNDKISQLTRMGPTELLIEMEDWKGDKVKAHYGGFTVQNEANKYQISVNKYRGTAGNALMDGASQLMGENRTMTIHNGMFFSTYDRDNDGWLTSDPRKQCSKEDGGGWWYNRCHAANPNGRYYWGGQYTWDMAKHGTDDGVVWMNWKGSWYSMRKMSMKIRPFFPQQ
T1 sequence (P02679 27-437 isoform P02679-2 partner limits assumed): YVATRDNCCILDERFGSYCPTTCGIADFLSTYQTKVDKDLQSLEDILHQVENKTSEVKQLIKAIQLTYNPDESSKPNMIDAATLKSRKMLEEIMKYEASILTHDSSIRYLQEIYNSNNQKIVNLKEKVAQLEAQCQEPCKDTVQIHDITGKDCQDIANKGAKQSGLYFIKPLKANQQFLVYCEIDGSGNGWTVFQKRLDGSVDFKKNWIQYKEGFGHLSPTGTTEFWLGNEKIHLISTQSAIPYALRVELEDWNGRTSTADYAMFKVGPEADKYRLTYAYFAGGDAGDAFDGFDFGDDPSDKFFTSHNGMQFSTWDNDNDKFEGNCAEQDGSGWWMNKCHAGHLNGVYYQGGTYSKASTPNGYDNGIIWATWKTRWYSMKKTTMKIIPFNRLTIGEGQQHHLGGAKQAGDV
The experiment can be described thus: Solid-phase binding assay (ELISA), immobilized fibrin. As to the method: The interaction between thymosin β4 and fibrin(ogen) and its fragments in the presence or absence of FXIIIa was studies by ELISA using plastic microliter plates. Wells of microliter plates were coated overnight at […] with fibrinogen and fibrin at 10 μg/mL or with the recombinant fragments of 20 μg/ml, all in 0.1 M NaHCO3 buffer, pH 8.3. Fibrin was made by addition to the wells of a mixture containing 10 μg/mL fibrinogen 1 NIH u/ml thrombin and 400 u/ml aprotinin, followed by overnight incubation at +4° C. The wells were then blocked by incubation with Super Blocker (Pierce) at 37° C. for 1 h. Following washing with TBS containing 0.05% Tween-20 (TBS-Tween), the indicated concentrations of thymosin β4, FXIII, FXIIIa(Thr) and FXIIIa(Ca) were added to the wells and incubated for 2-2.5 h at 37° C. Bound (incorporated) thymosin β4 was detected by the reaction with rabbit anti-thymosin β4 serum and peroxidase-conjugated anti-rabbit IgG. A TMB Microwell Peroxidase Substrase was added to the wells, and the incorporated thymosin β4 was measured spectrophotometrically at 450 nm.

Experiment [2] has as its target T1, fibrin. Description: Western blot time course of factor XIIIa-mediated incorporation into fibrin. The format is biochemical. The conditions noted are these: mixture of thrombin, factor XIII, thymosin β4 and fibrin; immunoblotting. On the procedure:
Reactions of incorporation of FITC-labeled and unlabeled thymosin β4 into fibrinogen and fibrin were performed in Eppendorf tubes containing a mixture of fibrinogen at 3 mg/mL (9 μM) and thymosin β4 or FITC-labeled thymosin β4 at […] (30 μM) in 100 μL TBS with 2.5 mM CaCl2. The reactions were initiated by addition of FXIIIa(Ca) or FXIIIa(Thr) to final concentration of 30 μg/mL. The final concentration of thrombin in the FXIIIa(Thr)-containing mixtures was made at 2.5 NIH u/mL, sufficient to rapidly form fibrin clot which was observed visually. The reactions with FITC-labeled thymosin β4 lasted for 4 hours at 37° C. in the dark and were stopped by heat inactiviation of the enzymes in boiling water for 5 min during fibrinogen and fibrin denatured and precipitated. The pellets were centrifuged and washed 3 times in TBS and then solubilized. The amounts of fibrin(ogen) and FITC-labeled thymosin β4 in the solubilized pellet were determined spectrophotomertrically using absorption molar coefficients E280,1%=15.0 and ε495=72,000 M^−1cm^−1, respectively. […]
Detection of thymosin β4 incorporated into fibrin(ogen) and its fragments was performed as follows. […] The membrane was blocked with a casein blocker for 1 hour and thymosin β4 was detected by the reaction with rabbit anti-thymosin β4 serum and peroxidase-conjugated anti-rabbit IgG. […]

Experiment [3] addresses T1, fibrin. Description: Factor XIIIa-mediated incorporation of FITC-labeled thymosin β4 into fibrin (spectrophotometric). The class given is biochemical. On the procedure: Reactions of incorporation of FITC-labeled and unlabeled thymosin β4 into fibrinogen and fibrin were performed in Eppendorf tubes containing a mixture of fibrinogen at 3 mg/mL (9 μM) and thymosin β4 or FITC-labeled thymosin β4 at […] (30 μM) in 100 μL TBS with 2.5 mM CaCl2. The reactions were initiated by addition of FXIIIa(Ca) or FXIIIa(Thr) to final concentration of 30 μg/mL. The final concentration of thrombin in the FXIIIa(Thr)-containing mixtures was made at 2.5 NIH u/mL, sufficient to rapidly form fibrin clot which was observed visually. The reactions with FITC-labeled thymosin β4 lasted for 4 hours at 37° C. in the dark and were stopped by heat inactiviation of the enzymes in boiling water for 5 min during fibrinogen and fibrin denatured and precipitated. The pellets were centrifuged and washed 3 times in TBS and then solubilized. The amounts of fibrin(ogen) and FITC-labeled thymosin β4 in the solubilized pellet were determined spectrophotomertrically using absorption molar coefficients E280,1%=15.0 and ε495=72,000 M^−1cm^−1, respectively. To prepare samples with unlabeled thymosin β4 for analysis by SDS-PAGE and Western blot the reaction mixtures at the indicated time were heat-inactivated as above and solubilized by addition of sample buffer (Invitrogen) containing SDS and reducing agent.

For the substance thymosin β4, in experiment [1] (absence of factor XIII or non-activated factor XIII), the “non-covalent interaction with immobilized fibrin (ELISA signal)” value is recorded as “no significant non-covalent interaction”. Further, the “factor XIIIa-mediated incorporation into immobilized fibrin (ELISA signal)” value in experiment [1] (factor XIII activated by CaCl2) was “higher than that into fibrinogen”. Further, the “time at which the amount of incorporated (cross-linked) thymosin β4 reaches saturation” value in experiment [2] is 4 h. The “degree of incorporation into fibrin” value in experiment [3] (fibrinogen 9 μM, thymosin β4 30 μM, factor XIIIa with thrombin, 4 hours, 37° C.) turned out to be 0.4 moles per mole. Also, in experiment [3] (physiological concentrations of fibrin(ogen) and factor XIII), the “molar incorporation ratio of thymosin β4 to fibrin” value is on record as 0.4.
